The values below are quoted from earlier work in publication PMC6039870.

The target in this data set is RNH1 (Homo sapiens) (UniProt P13489).
UniProt P13489, sequence (P13489 2-461): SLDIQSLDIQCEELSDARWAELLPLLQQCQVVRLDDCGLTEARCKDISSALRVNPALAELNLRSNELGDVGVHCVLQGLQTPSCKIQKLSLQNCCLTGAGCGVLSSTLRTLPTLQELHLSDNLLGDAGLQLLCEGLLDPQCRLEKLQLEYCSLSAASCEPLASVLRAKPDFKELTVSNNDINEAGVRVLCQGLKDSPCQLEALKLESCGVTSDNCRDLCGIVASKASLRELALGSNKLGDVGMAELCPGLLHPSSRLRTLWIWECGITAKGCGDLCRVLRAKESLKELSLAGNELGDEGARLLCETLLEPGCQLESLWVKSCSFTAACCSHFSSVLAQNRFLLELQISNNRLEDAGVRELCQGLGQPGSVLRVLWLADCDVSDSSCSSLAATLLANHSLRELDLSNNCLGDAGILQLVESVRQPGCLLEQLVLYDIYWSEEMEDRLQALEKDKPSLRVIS

Broadly, the Kd is a measure of binding affinity in units of concentration. RNASE1 (from UniProt P07998): the Kd was 0.0003 pM.
